According to patent US20080194485:

Molecular target: prekallikrein (PK), P03952
Sequence (P03952 20-638): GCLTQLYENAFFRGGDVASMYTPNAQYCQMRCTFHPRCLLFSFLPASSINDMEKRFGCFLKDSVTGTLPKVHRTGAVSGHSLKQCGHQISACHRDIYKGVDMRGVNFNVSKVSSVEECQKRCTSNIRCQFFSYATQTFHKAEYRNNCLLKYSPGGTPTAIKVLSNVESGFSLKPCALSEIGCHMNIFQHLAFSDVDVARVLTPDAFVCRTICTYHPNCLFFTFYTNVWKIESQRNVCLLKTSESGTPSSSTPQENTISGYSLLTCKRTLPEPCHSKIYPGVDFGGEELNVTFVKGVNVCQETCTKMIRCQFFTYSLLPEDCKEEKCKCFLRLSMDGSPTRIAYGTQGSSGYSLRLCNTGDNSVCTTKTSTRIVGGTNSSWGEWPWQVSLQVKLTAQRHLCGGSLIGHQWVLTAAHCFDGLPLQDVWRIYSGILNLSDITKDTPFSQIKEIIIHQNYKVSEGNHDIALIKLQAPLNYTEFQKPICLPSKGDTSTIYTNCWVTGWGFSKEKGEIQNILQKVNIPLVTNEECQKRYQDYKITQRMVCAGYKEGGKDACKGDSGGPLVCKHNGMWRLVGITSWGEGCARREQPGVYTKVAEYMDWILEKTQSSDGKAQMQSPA

B1: recombinant PRCP51 (recombinant human prolylcarboxypeptidase, predicted molecular mass 51 kDa) (protein)
chain: KNYSVLYFQQKVDHFGFNTVKTFNQRYLVADKYWKKNGGSILFYTGNEGDIIWFCNNTGFMWDVAEELKAMLVFAEHRYYGESLPFGDNSFKDSRHLNFLTSEQALADFAELIKHLKRTIPGAENQPVIAIGGSYGGMLAAWFRMKYPHMVVGALAASAPIWQFEDLVPCGVFMKIVTTDFRKSGPHCSESIHRSWDAINRLSNTGSGLQWLTGALHLCSPLTSQDIQHLKDWISETWVNLAMVDYPYASNFLQPLPAWPIKVVCQYLKNPNVSDSLLLQNIFQALNVYYNYSGQVKCLNISETATSSLGTLGWSYQACTEVVMPFCTNGVDDMFEPHSWNLKELSDDCFQQWGVRPRPSWITTMYGGKNISSHTNIVFSNGELDPWSGGGVTKDITDTLVAVTISEGAHHLDLRTKNALDPMSVLLARSLEVRHMKNWIRDFYDSAGKQH
Km of prekallikrein activation: Recombinant PRCP51 activates PK with a Km and Vmax of 9 nM and 0.2 min^-1, respectively | Vmax of prekallikrein activation: Recombinant PRCP51 activates PK with a Km and Vmax of 9 nM and 0.2 min^-1, respectively
